Test results reported in US20230002728A1, “STEM CELL FATE ENGINEERING METHODS” (Wisconsin Alumni Research Foundation, priority 2021, published 2023).

Tests used:
Type in all cases: cell-based, human
H9 hESCs [1] = assay: Localized cardiomyocyte differentiation on BMP4 patterns (cTnT immunostaining, day 8); details: 2.5 ng/μl BMP4 pattern, 5 μM IWP2 at day 3, day 8
Procedure: For localized cardiomyocyte (CM) differentiation, 2.5 ng/μl BMP4 solution was placed in PDMS stencil masks on a TC-treated plate. Matrigel® coating and hPSC seeding was performed as described above. At day 1 and day 2, medium was changed with fresh RPMI B27−. Afterwards, CM differentiation was performed based on the GiWi protocol (Lian et al. (2013) Nature protocols 8, 162-175). At day 3, cells were treated with 5 μM IWP2 in fresh RPMI B27−. At day 5, medium was changed with fresh RPMI B27−. At day 7, medium was changed with fresh RPMI B27+. At day 8, a beating phenotype of patterned CM derived from H9-hTNNT2-GFP hESC was recorded using a fluorescence microscope (Nikon, Eclipse Ti2-E) equipped with a heating stage top incubator (Tokai Hit, Tokai Hit STX Series Stage Top Incubator System). Cells were also immunostained for analysis at day 8.
Based on the results showing localized mesoderm differentiation on BMP-patterned substrates, mesodermal cells were examined to see if they could be further differentiated on these patterns into cardiomyocytes, a specialized mesodermal cell type. BMP4 patterns were used to direct mesoderm and Wnt inhibition by addition of IWP2 to the culture medium at day 3 to specify cardiac mesoderm and achieve patterned CM differentiation (FIG. 4A). The H9-hTNNT2-GFP hESC reporter line was used to visualize patterning of CMs in live cells. […]

H9 hESCs [2] = assay: Localized mesendoderm differentiation of hPSCs on adsorbed BMP4 patterns (BRACHYURY immunostaining, day 2); details: for mesendoderm differentiation (BRA expression): two days in mTeSR1
Procedure: […] For glass surfaces, 1.5 ng/μl BMP4 solution was used. 5 ng/μl noggin solution was placed as a droplet to show an inhibitory effect of noggin on BMP4-induced mesendoderm differentiation. After washing, substrate was coated with Matrigel® for 2 hours as described above. Glass was coated with Matrigel® overnight. 0.025 mg/ml Synthemax (Corning, 3535) (final concentration, diluted in water) was added to a washed TC-treated plate and the plate was incubated for 2 hours at room temperature prior to cell seeding. 5 μg/ml truncated recombinant human vitronectin (Gibco, A14700) diluted in PBS was added to a washed TC-treated plate and the plate was incubated for 1 hour at room temperature prior to cell seeding. After ECM coating, the ECM solution was aspirated and hPSCs were singularized using Accutase (10 min incubation at 37° C.), resuspended in mTeSR1 supplemented with 5 μM Y-27632, and seeded at 5×10^5 to about 1×10^6 cells/cm^2 on coated substrates (day 0). On the next day (day 1), medium was changed with fresh mTeSR1. […]
For immunostaining of other protein markers, cells were fixed in 4% paraformaldehyde (Electron Microscopy Sciences, 15710-S) in PBS for 15 min at room temperature, washed with PBS three times, and incubated in diluted primary antibodies in 5% nonfat dry milk (Santa Cruz Biotechnology, sc-2324)/0.4% Triton X-100 (Fisher Scientific, BP151-500) PBS overnight at 4° C. […] After secondary antibody staining, the cells were washed with PBS three times, incubated in 2 μg/ml Hoechst 33342 diluted in PBS for 5 min at room temperature, washed with PBS two times, and analyzed under the fluorescence microscope. […]
Next, BMP4 solution was placed on TC-treated plates in various patterns (droplet, letters, circle, heart, and star), and hPSCs seeded onto the substrate in mTeSR1 maintenance medium. […] Since the presence of inhibitory morphogens is also important in developmental patterning, a BMP inhibitor, noggin, was evaluated for antagonism to localized BMP4-induced mesendoderm differentiation. […]

[3] = test system: H9 hESC-derived cardiac progenitor cells (CPCs); assay: Localized EpiC differentiation of hPSC-derived cardiac progenitors on morphogen droplets (WT1 immunostaining); details: droplets on TC-coated PS plate, 7d after cardiac progenitor seeding
Procedure: For localized EpiC differentiation, BMP4 (2 ng/μl)+Wnt3a (40 ng/μl) solution was placed in PDMS stencil masks either on a TC-treated plate or an ibidi 35 mm polymer dish. Matrigel® coating was performed as described above. Cryopreserved CPCs were thawed and seeded at 500,000-550,000 cells/cm^2 in LaSR medium (advanced DMEM/F12 (Gibco, 12634-010) supplemented with 60 μg/ml ascorbic acid (Sigma, A8960) and 2.5 mM Glutamax (Gibco, 35050-061)) supplemented with 5 μM Y-27632). Medium was changed daily with fresh LaSR medium until analysis. Time lapse imaging of CPCs derived from H9-hTNNT2-GFP hESC during localized EpiC differentiation was performed using a fluorescence microscope equipped with a heating stage top incubator. 18 days after CPC seeding, cells cultured on an ibidi polymer dish were immunostained and imaged using a confocal microscope (Nikon, A1R-SI+) for the analysis of sarcomere structure.
Spatial organization of cell fate commitment is important throughout development. […] These cardiac progenitors can further differentiate into CMs without any specific external signaling factors and can also differentiate into EpiCs upon activation of canonical Wnt signaling (Bao et al. (2016) Nature biomed. Eng. 1, 1-12).

B1: BMP4: human recombinant BMP4 (Invitrogen, PHC9534), morphogen adsorbed on the substrate (protein, UniProt P12644 293-408, looked up)
Bone morphogenetic protein 4: SPKHHSQRARKKNKNCRRHSLYVDFSDVGWNDWIVAPPGYQAFYCHGDCPFPLADHLNSTNHAIVQTLVNSVNSSIPKACCVPTELSAISMLYLDEYDKVVLKNYQEMVVEGCGCR
H9 hESCs [1]
  cardiomyocyte differentiation (cTnT): localization of CMs to the patterned area
H9 hESCs [2]; BMP4 droplets adsorbed on TC-treated PS, Matrigel coating
  mesendoderm differentiation (BRA expression): induced localized mesendoderm differentiation
H9 hESCs [2]; BMP4 droplets adsorbed on untreated PS surface
  mesendoderm differentiation (BRA expression): none of the BMP4 droplets induced mesendoderm differentiation
H9 hESCs [2]; untreated PS surface, 0.1, 0.2, and 2.5 ng/ul BMP4 droplets
  cell attachment on the patterned area: partially or fully inhibited cell attachment
[3]
  EpiC differentiation (WT1 expression): limited if any EpiC differentiation
